Data set [1] deals with HEK293 cells. Nature of the data set: Luminescence of OgLuc variants expressed in HEK293 cells. The class given is cell-based, human. The protocol: The PCR library in the pF4Ag-based non-fusion background was screened for additional variants with increased luminescence compared to 9B8 opt+K33N+170G (SEQ ID NOs: 68 and 69). Selected variants were then assayed in HEK293 and NIH3T3 cells. For each cell type, 15,000 cells were plated and grown overnight at 37° C. The next day, the cells were transfected as described in Example 25 with 10 ng pGL4.13 (Promega Corp.) as a transfection control and 100 ng of the OgLuc test DNA. The media was removed, and the cells were lysed with 100 μL of lysis buffer as described in Example 25 except the lysis buffer contained 100 mM MES pH 6.0 instead of HEPES, and luminescence measured using a GLOMAX® Luminometer.
Based on the above data, further combination variants were designed and generated (see Table 10) in the context of the pF4Ag-based non-fusion vector background without the 170G. The variants were analyzed in E. coli, HEK293 and NIH3T3 cells as described above and compared to 9B8 opt+K33N. The variants were also examined for luminescence with native coelenterazine.
The brightness of the variants expressed in HEK293 and NIH3T3 cells was measured as described previously. The luminescence of the variants was normalized to the luminescence generated by 9B8 opt (Table 27).

The nature of data set [2]: Km of L27V reversion variants, native coelenterazine. The class given is biochemical. The protocol:
Relative activities <1 indicate the reversion is detrimental compared to the residue at that site in the L27V variant. Relative activities >1 indicate the reversion is favorable for activity compared to the residue at that site in the L27V variant. Some additional data on these mutants indicated the following: 166K, 54F, 54A and L27V were tested for thermal stability. The T1/2 60° C. for 166K, 54F, and 54A were 87, 74, and 33%, respectively, indicating these substitutions cause a reduction in thermal stability. […] This indicates higher substrate affinity for L27V, particularly for the position 54 substitutions.

A short description of data set [3]: Enzyme kinetics of OgLuc variants in E. coli lysates. The settings on record: PBI-3939, E. coli lysates. The class given is biochemical. How it is done:
Using methods known in the art, enzyme kinetic assays measuring luminescence were performed with the lysates of E. coli containing IV and the IV variants 15C1, 9B8, 9F6, and 9A3. […] Two fold serial dilutions of PBI-3939 in the assay buffer described previously in Example 26 were assayed with the diluted lysates. […] Variants 9B8 and 9F6 had higher Km values compared to IV while Km values for the other variants were unchanged.
Luminescence was measured on a TECAN® INFINITE® F500 luminometer.
The enzyme kinetics values were determined for the OgLuc variants as described previously, except luminescence was measured using a GLOMAX® luminometer. Three replicates were used for each variant.

A short description of data set [4]: Thermal stability of OgLuc variants at 60° C. The settings on record: 60° C., assay buffer MES pH 6.0. It counts as physicochemical. How it is done:
Aliquots were removed at different time-points and placed on dry ice to freeze the samples. […] Luminescence was measured on a GLOMAX® luminometer (Promega Corp.).
The thermal stability of the variants at 60° C. was examined as described above, except the assay buffer contained 100 mM MES pH 6.0 instead of HEPES.

The subject of data set [5] is HEK293 cells. The data set is described as follows: Luminescence in sandwich background, HEK293 cells. It counts as cell-based, human. The settings on record: non-sandwich versus sandwich. How it is done:
(§1) The PCR library in the Id-OgLuc-HT7 sandwich background was screened for additional variants with increased luminescence compared to 9B8 opt+K33N in sandwich background. Selected variants were then assayed in HEK293 and NIH3T3 cells. […] 1F7 (F) (SEQ ID NOs: 84 and 85) and 15H1 (F) (SEQ ID NOs: 86 and 87) had at least 1.3 fold-increase in luminescence in E. coli. 1F7 (F) was brighter than 9B8 opt+K33N in the sandwich background in HEK293 and NIH3T3 cells.
(§2) The variants 9B8 opt+K33N+T39T+K43R+Y68D (“V2”; SEQ ID NOs: 92 and 93), 9B8 opt+K33N+L27V+K43R+Y68D (SEQ ID NOs: 339 and 340), 9B8 opt+K33N+L27V+T39T+K43R+S66N (SEQ ID NOs: 341 and 342), and 9B8 opt+K33N+L27V+T39T+K43R+Y68D (“L27V”; SEQ ID NOs: 88 and 89) were subcloned into the Id-OgLuc-HT7 sandwich background as described above and assayed in HEK293 and NIH3T3 cells as described above. The luminescence generated by the sandwiched variants were compared to the luminescence generated by the […] sandwich (SEQ ID NOs: 59 and 60) (Table 38). The L27V sandwich (SEQ ID NOs: 90 and 91) and V2 sandwich (SEQ ID NOs: 94 and 95) had at least 1.3× fold-increase in luminescence in HEK293 and NIH3T3 cells.
(§3) The sandwich and non-sandwich versions of the variants V2, 9B8 opt+K33N+L27V+K43R+Y68D, 9B8 opt+K33N+L27V+T39T+K43R+S66N, and L27V were assayed in HEK293 and NIH3T3 cells as described in Example 37. The luminescence generated by the non-sandwiched variants was compared to the luminescence generated by the sandwiched variants (Table 39).

A further data set concerns NIH3T3 cells. Nature of the data set: Luminescence in sandwich background, NIH3T3 cells. The settings on record: non-sandwich versus sandwich. The class given is cell-based. The protocol:
as §1, §2, §3

Data set [6] is described as follows: Exposure of OgLuc variant to urea. The class given is physicochemical. The following applies: 3 M urea, 30 min at 25° C. How it is done:
Since Firefly luciferase is known to be relatively unstable, it is much more sensitive to urea exposure. To determine whether this was also the case with the OgLuc variants, the sensitivity of the OgLuc to urea was determined 5 μl of 45.3 μM L27V enzyme was mixed with 100 μL of a urea solution (100 mM MOPS, pH 7.2, 100 mM NaCl, 1 mM CDTA, 5% glycerol and various concentrations of urea) and incubated for 30 min at room temperature. 5 μL of the urea+L27V enzyme solution was diluted 10,000-fold into DMEM without phenol red+0.1% PRIONEX®, 50 μL was mixed with 50 μL of assay reagent containing 100 μM PBI-3939 (previously described) and the luminescence was read at 10 min. (FIG. 88).
A 0.31 mg/mL stock of purified L27V variant was diluted 100,000-fold into buffer (PBS+1 mM DTT+0.005% IGEPAL) and incubated with 3 M urea for 30 min at 25° C. and then mixed 1:1 (50 μL+50 μL) with an assay reagent containing 100 μM PBI-3939 (previously described). The reactions were read on a TECAN® INFINITE® F500 luminometer as described previously (for 100 min; 1 min read intervals) (FIG. 89).

Here are results for 1 molecule from patent publication US9951373B2, “Oplophorus-derived luciferases, novel coelenterazine substrates, and methods of use” (Promega Corporation, priority 2010, dated 2018).

B1: L27V: 9B8 opt+K33N variant with L27V, T39T, K43R, Y68D (SEQ ID NO: 89) (protein)
chain: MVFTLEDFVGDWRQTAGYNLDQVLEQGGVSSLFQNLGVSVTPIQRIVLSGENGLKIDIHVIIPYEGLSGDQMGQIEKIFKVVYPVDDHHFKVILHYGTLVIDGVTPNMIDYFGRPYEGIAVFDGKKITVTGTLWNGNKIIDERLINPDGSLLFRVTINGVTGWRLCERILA
In the case of B1, the “luminescence normalized to 9B8 opt, HEK293” value in the data set with HEK293 cells [1] (PBI-3939) is given as 1.6. The “Fold over 9B8 opt + K33N, HEK293” value in the data set with HEK293 cells [1] (luminescence, PBI-3939) was determined as 0.8. Also, the “Fold over Native Coelenterazine, HEK293” value in the data set with HEK293 cells [1] (relative specificity for PBI-3939 compared to native coelenterazine) came out at 97. Further, the Km in data set [2] is 16 µM; in data set [3] it was 13.9 µM. In addition, in data set [3], the Vmax is on record as 190,000,000 RLU/0.5 sec. This molecule gave a 1/2 life hours in data set [4] of 21.7 h. Further, the “Fold-decrease in luminescence in the presence of sandwich background, HEK 293” value in the data set on HEK293 cells [5] stood at 6. Further, the “Fold-decrease in luminescence in the presence of sandwich background, NIH 3T3 cells” value in the data set with NIH3T3 cells came to 18. For the same molecule, the reduction of activity entry in data set [6] is “approximately 50%”.

In general, Km refers to the substrate concentration at which the rate is half of its maximum.
